Experimental data: patent publication US20230406950A1 (LYVGEN BIOPHARMA, published 2023)

Assays:
[1] = molecular target: T1, human PD-L1 expressed on cells (human, UniProt Q9NZQ7 19-290); test: flow cytometry (FACS), MFI, CHO cells expressing human PD-L1
T1 construct: whole, on cells; also called human PD-L1 expressed on CHO cells; Raji-PD-L1 cells
Method: (§1) Exemplary anti-PD-1/CD137 bi-specific antibodies were analyzed by FACS for their binding properties to human PD-1 and/or human CD137 expressed on CHO cells. Briefly, cultured cells were harvested, counted and cell viability was evaluated using the Trypan Blue exclusion method. Viable cells were then adjusted to 2×10⁶ cells per mL in PBS containing 2% BSA. 100 μL of this cell suspension were further aliquoted per well into a V-bottom 96-well plate. […] After incubation for 2 hours at 4° C., cells were centrifuged (3 min, 1000× g), washed with 250 μL/well BSA-containing FACS Stain Buffer, resuspended and incubated for an additional 1 hour at 4° C. with 100 μL/well fluorochrome-conjugated anti-IgG antibody for detection of the bisepecific antibody. Cells were then washed with 250 μL/well BSA-containing FACS Stain Buffer, resuspended in 100 μL/well FACS Stain Buffer, acquired and analyzed using a FACS machine. Binding of the bispecific antibodies to human PD-1 or human CD137 expressing CHO cells were evaluated and the mean fluorescence intensity is plotted in histograms or dot plots.
(§2) Exemplary anti-PD-L1/CD137 bi-specific antibodies were analyzed by FACS for their binding properties to human PD-L1 or human CD137 expressed on CHO cells, following the procedures disclosed in Examples 1 above.

[2] = molecular target: T2, human CD137 expressed on cells (human, UniProt Q07011 24-255); test: flow cytometry (FACS), MFI, CHO cells expressing human CD137
T2 construct: whole, on cells; also called 4-1BB; TNFRSF9
Method: as §1, §2

[3] = molecular target: T2, human CD137 expressed on cells; test: FACS on CHO cells expressing human CD137 (MFI)
Method: as §1, with “Anti-OX40/CD137” for “Exemplary anti-PD-1/CD137”, “OX40” for “PD-1”, “1000×g),” for “1000× g),”

[4] = molecular target: T2, human CD137 expressed on cells; test: FACS on CHO cells expressing human CD137 (MFI); remark: listed apart in the source
Method: as §1, with “Anti-GITR/CD137” for “Exemplary anti-PD-1/CD137”, “GITR” for “PD-1”

[5] = molecular target: T2, human CD137 expressed on cells; test: FACS on CHO cells expressing human CD137 (MFI); remark: listed apart in the source
Method: as §1, with “Anti-CD40/CD137” for “Exemplary anti-PD-1/CD137”, “CD40” for “PD-1”, “1000×g),” for “1000× g),”

[6] = molecular target: T2, human CD137 expressed on cells; test: FACS on CHO cells expressing human CD137 (MFI); remark: listed apart in the source
Method: as §1, with “Anti-CD40/CD137” for “Exemplary anti-PD-1/CD137”, “CD40” for “PD-1”, “1000×g),” for “1000× g),”

[7] = molecular target: T2, human CD137 expressed on cells; test: FACS on CHO cells expressing human CD137 (MFI); remark: listed apart in the source
Method: as §1, with “Anti-GITR/CD137” for “Exemplary anti-PD-1/CD137”, “GITR” for “PD-1”

[8] = molecular target: T2, human CD137 expressed on cells; test: flow cytometry (FACS), MFI, CHO cells expressing human CD137; remark: listed apart in the source
Outline: (§3)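 Viable CHO cells, 2×10⁶ cells/mL in PBS with 2% BSA, incubated with bispecific antibodies for 2 h at 4° C. Bound antibody detected with fluorochrome-conjugated anti-IgG, 1 h at 4° C. Read-out is mean fluorescence intensity by flow cytometry.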

[9] = molecular target: T2, human CD137 expressed on cells; test: FACS on CHO cells expressing human CD137 (MFI); remark: listed apart in the source
Method: as §1, with “Anti-OX40/CD137” for “Exemplary anti-PD-1/CD137”, “OX40” for “PD-1”, “1000×g),” for “1000× g),”

[10] = molecular target: T3, human PD-1 expressed on cells (human, UniProt Q15116 25-288); test: flow cytometry (FACS), MFI, CHO cells expressing human PD-1
T3 construct: whole, on cells; also called human PD-1 over-expressed on the CHO cells; Jurkat/NFkB-Luci/PD-1 cells
Outline: as §3

[11] = molecular target: T4, human CD40 expressed on CHO cells (human, UniProt P25942 21-277); test: FACS on CHO cells expressing human CD40 (MFI)
T4 construct: whole, on cells
T4 sequence (P25942 21-277): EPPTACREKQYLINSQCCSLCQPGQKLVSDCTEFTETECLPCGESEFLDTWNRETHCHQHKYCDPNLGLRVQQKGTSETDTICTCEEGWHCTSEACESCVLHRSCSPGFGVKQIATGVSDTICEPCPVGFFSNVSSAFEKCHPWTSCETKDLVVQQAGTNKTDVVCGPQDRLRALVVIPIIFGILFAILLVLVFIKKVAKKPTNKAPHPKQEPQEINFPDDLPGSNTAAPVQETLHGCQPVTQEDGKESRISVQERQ

T2 sequence (Q07011 24-255): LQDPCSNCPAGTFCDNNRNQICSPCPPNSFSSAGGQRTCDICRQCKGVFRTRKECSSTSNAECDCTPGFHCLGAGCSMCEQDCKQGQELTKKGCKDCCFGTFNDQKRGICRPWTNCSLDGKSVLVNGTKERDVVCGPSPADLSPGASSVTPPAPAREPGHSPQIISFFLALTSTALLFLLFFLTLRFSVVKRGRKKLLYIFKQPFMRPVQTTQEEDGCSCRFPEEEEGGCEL
T1 sequence (Q9NZQ7 19-290): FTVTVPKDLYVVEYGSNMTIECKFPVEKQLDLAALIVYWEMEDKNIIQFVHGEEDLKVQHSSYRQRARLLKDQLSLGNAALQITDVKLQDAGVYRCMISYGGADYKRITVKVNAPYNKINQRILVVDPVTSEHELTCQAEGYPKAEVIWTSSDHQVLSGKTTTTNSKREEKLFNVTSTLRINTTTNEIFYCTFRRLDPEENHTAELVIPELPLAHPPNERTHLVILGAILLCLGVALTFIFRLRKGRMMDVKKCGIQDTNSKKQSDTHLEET
T3 sequence (Q15116 25-288): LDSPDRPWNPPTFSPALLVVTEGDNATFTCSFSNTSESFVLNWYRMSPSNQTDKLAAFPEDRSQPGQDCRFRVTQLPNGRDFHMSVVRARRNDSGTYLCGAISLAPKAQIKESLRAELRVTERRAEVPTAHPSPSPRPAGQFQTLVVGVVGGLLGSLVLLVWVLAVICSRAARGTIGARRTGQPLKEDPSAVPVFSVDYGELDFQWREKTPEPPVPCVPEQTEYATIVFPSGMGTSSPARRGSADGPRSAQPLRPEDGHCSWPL

B1: Ly076 (antibody, V domains shown)
VH: QVQLVQSGAEVKKPGASVKVSCKASGYTFTDFWMSWVRQAPGQGLEWMGQIYPNTGTTHSNEKFKGRVTMTRDTSTSTVYMELSSLRSEDTAVYYCARSYHISTTPNWFAYWGQGTLVTVSS
VL: DIQMTQSPSSLSASVGDRVTITCKASQNVYKKLEWYQQKPGKVPKVLIYHTNILQTGVPSRFSGSGSGTDYTLTISSLQPEDVATYYCYQWNSGPTFGGGTKVEIK
notes: Humanized anti-PD-L1 parent; also called anti-PD-L1 antibody Ly076
binding result [1]: binds
binding result [2]: no binding (tested: 10 ug/ml)

B2: Ly1630 (antibody, V domains shown)
VH: QVQLVQSGAEVKKPGASVKVSCKASGYTFAGFEMHWVRQAPGQGLEWMGAIDPKTGGTDYNQKFKDRVTMTRDTSISTAYMELSRLRSDDTAVYYCARDLGYFDVWGQGTLVTVSS
VL: DIQMTQSPSSLSASVGDRVTITCRASQDIRSNLNWYQQKPGGAVKLLIYYTSRLHSGVPSRFSGSGSGTDYTLTISSLQPEDFATYFCQQSEKLPRTFGGGTKVEIR
notes: Humanized anti-CD137 antibody; also called parent anti-CD137 antibody clone Ly1630; CD137 parental antibody Ly1630
EC50 (read off the curve) [3]: ~0.09 µg/mL
EC50 (read off the curve) [4]: ~0.1 µg/mL
EC50 (read off the curve) [5]: ~0.03 µg/mL
EC50 (read off the curve) [6]: ~0.03 µg/mL
EC50 (read off the curve) [7]: ~0.1 µg/mL
EC50 (read off the curve) [8]: ~0.05 µg/mL
binding result [1]: no binding (tested: 10 ug/ml)
EC50 (read off the curve) [9]: ~0.1 µg/mL
binding result [10]: no binding (tested: 10 ug/ml)

B3: Ly738 (bispecific antibody, human IgG1, kappa)
heavy: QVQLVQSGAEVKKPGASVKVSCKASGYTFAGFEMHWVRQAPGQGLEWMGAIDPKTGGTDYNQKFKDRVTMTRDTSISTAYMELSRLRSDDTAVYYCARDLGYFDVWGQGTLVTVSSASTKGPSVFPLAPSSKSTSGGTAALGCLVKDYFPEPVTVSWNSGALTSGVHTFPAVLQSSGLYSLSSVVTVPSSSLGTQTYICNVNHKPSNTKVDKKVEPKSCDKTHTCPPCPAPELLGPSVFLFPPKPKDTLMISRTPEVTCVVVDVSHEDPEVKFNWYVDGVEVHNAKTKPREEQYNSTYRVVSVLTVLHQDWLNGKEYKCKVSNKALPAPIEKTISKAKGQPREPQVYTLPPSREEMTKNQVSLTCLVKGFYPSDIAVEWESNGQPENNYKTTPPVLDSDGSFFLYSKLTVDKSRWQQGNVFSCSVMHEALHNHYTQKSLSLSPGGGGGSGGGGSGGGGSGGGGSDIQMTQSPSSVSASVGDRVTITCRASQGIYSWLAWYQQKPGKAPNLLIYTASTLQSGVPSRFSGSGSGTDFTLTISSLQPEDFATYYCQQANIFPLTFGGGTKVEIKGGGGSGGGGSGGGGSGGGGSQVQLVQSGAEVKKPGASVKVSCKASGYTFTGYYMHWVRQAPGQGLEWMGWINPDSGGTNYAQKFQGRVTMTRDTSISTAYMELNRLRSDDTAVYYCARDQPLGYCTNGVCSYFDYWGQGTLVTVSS
light: DIQMTQSPSSLSASVGDRVTITCRASQDIRSNLNWYQQKPGGAVKLLIYYTSRLHSGVPSRFSGSGSGTDYTLTISSLQPEDFATYFCQQSEKLPRTFGGGTKVEIRRTVAAPSVFIFPPSDEQLKSGTASVVCLLNNFYPREAKVQWKVDNALQSGNSQESVTEQDSKDSTYSLSSTLTLSKADYEKHKVYACEVTHQGLSSPVTKSFNRGEC
notes: Anti-CD40/CD137: Ly1630 heavy chain fused to Ly253 scFv (VL-VH); Ly1630 light chain
EC50 (read off the curve) [6]: ~0.05 µg/mL
EC50 (read off the curve) [11]: ~0.08 µg/mL

B4: Ly739 (bispecific antibody, human IgG1, kappa)
heavy: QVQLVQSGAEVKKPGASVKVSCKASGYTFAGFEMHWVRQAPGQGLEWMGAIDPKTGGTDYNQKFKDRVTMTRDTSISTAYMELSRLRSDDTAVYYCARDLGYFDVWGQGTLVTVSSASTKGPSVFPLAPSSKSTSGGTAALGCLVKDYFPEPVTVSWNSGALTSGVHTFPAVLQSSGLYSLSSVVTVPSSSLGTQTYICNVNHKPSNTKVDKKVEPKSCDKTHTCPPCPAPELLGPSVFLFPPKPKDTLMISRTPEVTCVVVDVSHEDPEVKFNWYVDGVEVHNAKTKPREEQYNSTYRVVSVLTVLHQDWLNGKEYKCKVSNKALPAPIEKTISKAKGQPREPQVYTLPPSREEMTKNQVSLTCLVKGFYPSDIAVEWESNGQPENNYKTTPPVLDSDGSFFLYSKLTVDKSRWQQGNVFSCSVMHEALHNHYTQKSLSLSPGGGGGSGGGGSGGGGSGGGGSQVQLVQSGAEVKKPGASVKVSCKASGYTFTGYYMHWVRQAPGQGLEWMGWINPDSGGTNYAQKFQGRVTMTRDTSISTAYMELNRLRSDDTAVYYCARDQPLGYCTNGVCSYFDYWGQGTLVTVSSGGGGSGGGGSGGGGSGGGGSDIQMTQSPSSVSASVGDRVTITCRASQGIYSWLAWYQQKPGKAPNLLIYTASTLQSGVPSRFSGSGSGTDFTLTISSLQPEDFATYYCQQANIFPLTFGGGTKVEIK
light: B3 light
notes: Anti-CD40/CD137: Ly1630 heavy chain fused to Ly253 scFv (VH-VL); Ly1630 light chain
EC50 (read off the curve) [6]: ~0.05 µg/mL
binding result [11]: binds
